Changes are numbered by the printed parent chain. One block for each binder: values may come before it.
Assays:
[1] = biological target: T1, Murine B7-H4-Fc (Mouse B7H4 ECD, Fc_6His) (mouse, UniProt Q7TSP5 25-257); assay: HTRF binding, human IgG1
T1 construct: extracellular domain; also called mouse B7-H4-Fc; FcHis6 tagged murine B7-H4
T1 sequence (Q7TSP5 whole entry, looked up): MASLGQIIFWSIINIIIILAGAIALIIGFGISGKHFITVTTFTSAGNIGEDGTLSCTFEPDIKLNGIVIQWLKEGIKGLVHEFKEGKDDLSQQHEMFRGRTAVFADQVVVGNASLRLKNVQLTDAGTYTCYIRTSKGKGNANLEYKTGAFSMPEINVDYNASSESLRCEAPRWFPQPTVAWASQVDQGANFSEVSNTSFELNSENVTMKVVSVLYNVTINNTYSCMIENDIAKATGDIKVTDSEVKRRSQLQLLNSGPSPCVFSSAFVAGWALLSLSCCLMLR

[2] = biological target: T2, Murine B7-H4 ECD-Flag-His10 (monomeric) (mouse, UniProt Q7TSP5 25-257); assay: Octet BLI, hIgG1 on Protein G (n = 1)
T2 construct: extracellular domain; also called FlagHis10 murine B7-H4
T2 sequence (looked up): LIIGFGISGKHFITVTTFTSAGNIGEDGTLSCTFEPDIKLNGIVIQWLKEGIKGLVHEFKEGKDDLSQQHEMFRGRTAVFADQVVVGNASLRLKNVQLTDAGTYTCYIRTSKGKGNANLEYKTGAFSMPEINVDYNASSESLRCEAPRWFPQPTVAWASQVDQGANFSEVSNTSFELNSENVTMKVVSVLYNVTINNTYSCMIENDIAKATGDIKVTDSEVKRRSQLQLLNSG

[3] = biological target: T3, Human B7-H4 ECD-Flag-His10 (monomeric) (human, UniProt Q7Z7D3 25-259); assay: Octet BLI, hIgG1 on Protein G (n = 1)
T3 construct: Minimally biotinylated for KinExA; also called hB7H4-ECD-Flag-His10; B7-H4-FLAG
T3 sequence: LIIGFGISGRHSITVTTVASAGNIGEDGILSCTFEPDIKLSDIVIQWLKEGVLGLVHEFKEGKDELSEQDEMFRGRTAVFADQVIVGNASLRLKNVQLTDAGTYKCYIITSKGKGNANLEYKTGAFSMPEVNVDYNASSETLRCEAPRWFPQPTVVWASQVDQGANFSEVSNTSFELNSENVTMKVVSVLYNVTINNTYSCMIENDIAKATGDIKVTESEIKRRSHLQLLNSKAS

[4] = biological target: T4, Human B7-H4-Fc (Human B7H4 ECD, Fc_6His) (human); assay: HTRF binding, human IgG1
T4 construct: also called FcHis6 tagged human B7-H4
T4 sequence (Q7Z7D3 whole entry, looked up): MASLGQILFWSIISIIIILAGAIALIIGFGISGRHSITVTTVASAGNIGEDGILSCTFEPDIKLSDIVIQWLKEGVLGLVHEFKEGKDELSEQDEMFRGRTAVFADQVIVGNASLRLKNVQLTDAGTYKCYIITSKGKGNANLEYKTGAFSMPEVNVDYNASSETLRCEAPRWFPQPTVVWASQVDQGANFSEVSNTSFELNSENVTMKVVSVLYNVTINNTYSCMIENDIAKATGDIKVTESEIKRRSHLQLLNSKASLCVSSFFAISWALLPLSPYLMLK

[5] = biological target: T5, Cyno B7-H4-Fc (Cyno B7H4 ECD, FcTM_6His) (cynomolgus monkey); assay: HTRF binding, human IgG1
T5 construct: extracellular domain; also called cynomolgus B7-H4-Fc

[6] = biological target: T6, Human B7H4 ECD (SV), splice variant, 10His_FLAG (human); assay: Octet BLI, hIgG1 on Protein G (n = 1)
T6 construct: also called B7-H4-SV

huB7-H3 = biological target: T7, huB7-H3 (human, UniProt Q5ZPR3 29-461, limits assumed); assay: ELISA, absorbance 450 nm, antigen human B7-H3 (ECD) Fc
T7 construct: Sourced antigen; construct not described; also called Human B7-H3
T7 sequence (looked up): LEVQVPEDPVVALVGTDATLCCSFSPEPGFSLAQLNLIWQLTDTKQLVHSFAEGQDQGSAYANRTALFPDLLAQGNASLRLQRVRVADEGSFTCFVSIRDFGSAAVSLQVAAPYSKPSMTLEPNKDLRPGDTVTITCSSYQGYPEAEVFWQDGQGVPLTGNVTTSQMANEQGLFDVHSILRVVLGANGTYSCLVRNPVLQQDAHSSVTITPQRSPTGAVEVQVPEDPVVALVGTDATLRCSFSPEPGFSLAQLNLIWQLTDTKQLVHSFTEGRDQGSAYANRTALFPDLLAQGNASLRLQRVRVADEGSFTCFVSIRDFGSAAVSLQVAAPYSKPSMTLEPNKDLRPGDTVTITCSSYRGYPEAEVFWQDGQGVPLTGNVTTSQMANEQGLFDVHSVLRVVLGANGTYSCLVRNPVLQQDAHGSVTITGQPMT

huB7-H1 = biological target: T8, huB7-H1 (human, UniProt Q9NZQ7 19-238); assay: ELISA, absorbance 450 nm, antigen human B7-H1(ECD) F10H
T8 construct: Sourced antigen; construct not described; also called Human B7-H1

huHHLA2 = biological target: T9, huHHLA2 (human, UniProt Q9UM44 23-344); assay: ELISA, absorbance 450 nm, antigen human HHLA2 GST
T9 construct: Sourced antigen; construct not described; also called Human HHLA2
T9 sequence (looked up): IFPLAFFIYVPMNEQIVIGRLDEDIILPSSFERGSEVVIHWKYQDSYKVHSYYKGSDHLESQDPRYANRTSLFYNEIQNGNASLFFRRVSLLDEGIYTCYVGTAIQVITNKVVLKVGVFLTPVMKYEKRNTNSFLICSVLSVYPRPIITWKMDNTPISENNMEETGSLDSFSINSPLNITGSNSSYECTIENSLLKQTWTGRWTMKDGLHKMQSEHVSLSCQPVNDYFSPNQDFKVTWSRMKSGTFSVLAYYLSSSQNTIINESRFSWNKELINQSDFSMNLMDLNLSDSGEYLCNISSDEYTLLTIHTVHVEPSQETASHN

huBTN3A2 = biological target: T10, huBTN3A2 (human, UniProt P78410 30-248, limits assumed); assay: ELISA, absorbance 450 nm, antigen human BTN3A2 GST
T10 construct: Sourced antigen; construct not described; also called Human BTN3A2

huB7-H2 = biological target: T11, huB7-H2 (human, UniProt O75144 19-258); assay: ELISA, absorbance 450 nm, antigen human B7-H2 (ECD) F10H
T11 construct: Sourced antigen; construct not described; also called Human B7-H2
T11 sequence (looked up): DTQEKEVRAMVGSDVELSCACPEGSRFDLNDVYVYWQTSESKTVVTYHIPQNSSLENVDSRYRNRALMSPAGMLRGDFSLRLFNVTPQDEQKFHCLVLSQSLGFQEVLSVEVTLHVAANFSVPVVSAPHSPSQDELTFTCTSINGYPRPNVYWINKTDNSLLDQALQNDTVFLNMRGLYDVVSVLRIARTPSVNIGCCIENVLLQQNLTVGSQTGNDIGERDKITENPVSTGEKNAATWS

huBTN1A1 = biological target: T12, huBTN1A1 (human, UniProt Q13410 27-242, limits assumed); assay: ELISA, absorbance 450 nm, antigen human BTN1A1 GST
T12 construct: Sourced antigen; construct not described; also called Human BTN1A1
T12 sequence (looked up): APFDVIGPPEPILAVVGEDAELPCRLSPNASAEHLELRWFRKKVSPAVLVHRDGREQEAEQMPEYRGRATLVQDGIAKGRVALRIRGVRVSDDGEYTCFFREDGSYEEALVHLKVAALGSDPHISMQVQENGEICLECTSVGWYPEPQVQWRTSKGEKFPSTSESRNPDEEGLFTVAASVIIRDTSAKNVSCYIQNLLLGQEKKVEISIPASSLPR

T8 sequence (Q9NZQ7 19-238 limits assumed): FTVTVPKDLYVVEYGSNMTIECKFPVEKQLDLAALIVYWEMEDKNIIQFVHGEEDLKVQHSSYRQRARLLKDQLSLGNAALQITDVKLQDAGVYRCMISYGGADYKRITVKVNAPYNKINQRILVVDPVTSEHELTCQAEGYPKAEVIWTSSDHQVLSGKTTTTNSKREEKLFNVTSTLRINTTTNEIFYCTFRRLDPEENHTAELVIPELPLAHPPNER
T10 sequence (P78410 30-248 limits assumed): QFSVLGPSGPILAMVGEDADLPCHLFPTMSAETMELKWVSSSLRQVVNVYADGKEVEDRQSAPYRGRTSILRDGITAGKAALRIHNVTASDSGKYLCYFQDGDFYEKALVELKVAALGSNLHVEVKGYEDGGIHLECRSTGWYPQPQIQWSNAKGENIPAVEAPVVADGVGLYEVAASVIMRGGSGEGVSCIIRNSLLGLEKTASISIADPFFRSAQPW

B1: ZY0EP0-C07 human IgG1 (antibody, V domains shown)
VH: QVQLVESGGVLVKPGGSLRLSCAASGFTLSDYYMSWIRQAPGMGLEWVSYISSSGSTIYYTDSVKGRFTISRDSAKNSLYLQMNSLRAEDTAVYYCARDGVGFDYWGQGTLVTVSS
VL: EIVLTQSPGTLSLFPGERATLSCRASQSVSSSYLAWYQQKPGQSPRLLIYAASSRATGIPDRFSGSGSGTDFTLTISRLEPEDFAVYYCQQYGSSPLYTFGQGTKLEIK
notes: also called ZY0EPO-C07
- EC50 [1]: 0.18 nM
- Max [1]: 1320
- Kd [2]: 9 nM
- koff [2]: 0.000551 s⁻¹
- kon [2]: 60200 M⁻¹ s⁻¹
- Kd [3]: 7 nM
- koff [3]: 0.000363 s⁻¹
- kon [3]: 48800 M⁻¹ s⁻¹
- EC50 [4]: 0.3 nM
- Max [4]: 1220
- EC50 [5]: 0.33 nM
- Max [5]: 946

B5: ZY0EO5-E07 human IgG1 (antibody, V domains shown)
VH: QVQLQESGPGLVKPSQTLSLTCTVSGGSISSGGYYWSWIRQHPGKGLEWIGNIYYSGSTYYNPSLKSRVTISVDTSKNQFSLKLSSVTAADTAVYYCAREKALASVIPSGYENYYVVDVWGQGTTVTVSS
VL: DIQLTQSPSFLSASVGGRVTITCWASQGIAGYLAWYQQKPGKAPKLLIYAASTLQSGVPSRFSGSGSGTEFTLTISSLQPEDFATYYCQHLNSYPLTFGGGTKVEIK
notes: also called ZY0E05-E07; E05-E07
- EC50 [1]: 0.21 nM
- Max [1]: 1300
- Kd [2]: 23.2 nM
- koff [2]: 0.000415 s⁻¹
- kon [2]: 17900 M⁻¹ s⁻¹
- Kd [3]: 14.6 nM
- koff [3]: 0.000318 s⁻¹
- kon [3]: 21700 M⁻¹ s⁻¹
- Kd [6]: 182 nM
- koff [6]: 0.000528 s⁻¹
- kon [6]: 2910 M⁻¹ s⁻¹
- EC50 [4]: 0.19 nM
- Max [4]: 1710
- EC50 [5]: 0.18 nM
- Max [5]: 1360

B6: ZY0EOB-F05 human IgG1 (antibody, V domains shown)
VH: B5 VH with G26D, S85N, R99T, S105T, I107T, V116T
VL: B5 VL with G17D, A30S, G31S
- EC50 [1]: 0.19 nM
- Max [1]: 1320
- Kd [2]: 19.8 nM
- koff [2]: 0.000493 s⁻¹
- kon [2]: 24900 M⁻¹ s⁻¹
- Kd [3]: 11.7 nM
- koff [3]: 0.000362 s⁻¹
- kon [3]: 31000 M⁻¹ s⁻¹
- Kd [6]: 127 nM
- koff [6]: 0.000598 s⁻¹
- kon [6]: 4710 M⁻¹ s⁻¹
- EC50 [4]: 0.15 nM
- Max [4]: 1820
- EC50 [5]: 0.14 nM
- Max [5]: 1480

The next lines start with results.

- EC50 [1]: 1.49 nM
- Max [1]: 279
- Kd [2]: 498 nM
- koff [2]: 0.0498 s⁻¹
- kon [2]: 100000 M⁻¹ s⁻¹
- Kd [3]: 24 nM
- koff [3]: 0.00208 s⁻¹
- kon [3]: 85900 M⁻¹ s⁻¹
- Kd [6]: 1030 nM
- koff [6]: 0.00252 s⁻¹
- kon [6]: 2460 M⁻¹ s⁻¹
- EC50 [4]: 0.38 nM
- Max [4]: 1130
- EC50 [5]: 0.33 nM
- Max [5]: 987
B2: ZY0EPQ-E02 human IgG1 (antibody, V domains shown)
VH: QVQLQQWGAGLLKPSETLSLTCAVYGGSFSGYYWNWIRQPPGKGLEWIGEINHSGSTNYNPSLKSRVTILVDTSKNQFSLKLSSVTAADTAVYYCARNLYNWNLDSWGQGTLVTVSS
VL: DIQMTQSPSSLSASVGDRVTITCRASQGIRNDLGWYQQKPGRAPKRLIYVASSLQSGVPSRFSGSGSGTEFTLTISSLQPEDFATYYCLQHNSYPRTFGQGTKVEIK

- EC50 [1]: 1.4 nM
- Max [1]: 167
- Kd [2]: 625 nM
- koff [2]: 0.213 s⁻¹
- kon [2]: 341000 M⁻¹ s⁻¹
- Kd [3]: 14.9 nM
- koff [3]: 0.00321 s⁻¹
- kon [3]: 216000 M⁻¹ s⁻¹
- Kd [6]: 834 nM
- koff [6]: 0.00349 s⁻¹
- kon [6]: 4190 M⁻¹ s⁻¹
- EC50 [4]: 0.35 nM
- Max [4]: 1240
- EC50 [5]: 0.28 nM
- Max [5]: 1130
B3: ZY0EQD-E02 human IgG1 (antibody, V domains shown)
VH: B2 VH with N58S, L70S, N98V, L104V
VL: B2 VL with G28D, L33V, R42K, V50A, S53R

- binding result (huB7-H3): no binding
- binding result (huB7-H1): no binding (tested: 10 µg/ml (antigen))
- binding result (huB7-H2): no binding (tested: 10 µg/ml (antigen))
- binding result (huBTN1A1): no binding (tested: 10 µg/ml (antigen))
B4: human ZY0EPQ-E02 (antibody, V domains shown)
VH: B2 VH
VL: B2 VL
- binding result (huHHLA2): no binding (tested: about 10 µg/ml (antigen))
- binding result (huBTN3A2): no binding (tested: about 10 µg/ml (antigen))

Reference: patent publication US20240239894A1 (AstraZeneca / MedImmune, published 2024)
